Like-named read-outs stand apart in the source and are kept apart here.
Key:
human C3b (human) [1] = molecular target: human C3b (human) (UniProt P01024); assay: radioligand binding
human C3b (human) [2] = molecular target: human C3b (human) (UniProt P01024); assay: radioligand binding; remark: listed apart in the source

IC50 (human C3b (human) [1]): 200 nM | IC50 (human C3b (human) [2]): 1000 nM
Substance: wildtype rH19-20 (recombinant domains 19-20 of factor H) (from UniProt P08603 1107-1231) (domain or fragment)
